The supplement of paper PMC9112550, “Optimization of the antimicrobial peptide Bac7 by deep mutational scanning” (BMC Biology, 2022)

Tested on: Escherichia coli TOP10
Test: shrunken log2 fold change of peptide-encoding DNA abundance (4.5 h post-induction vs induction); higher = less antimicrobial activity (less host growth inhibition)
Settings: time post-induction: 4.5 h; library: site-saturation at positions 5, 18, 19, 20
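Further: peptides expressed intracellularly from a pBAD plasmid library in pooled LB shake-flask culture, induced with 0.3% L-arabinose, DNA abundance read by NGS, three biological replicates, DESeq2 with apeglm shrinkage.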

Sequence | shrunken log2 fold change
RRIRLRPPRLPRPRPRPLAPPRP | 0.274
RRIRLRPPRLPRPRPRPLARPRP | 0.615
RRIRLRPPRLPRPRPRPLAVPRP | 0.139
RRIRLRPPRLPRPRPRPLCFPRP | -0.233
RRIRLRPPRLPRPRPRPLCKPRP | -0.398
RRIRLRPPRLPRPRPRPLDEPRP | -0.0999
RRIRLRPPRLPRPRPRPLDLPRP | -0.481
RRIRLRPPRLPRPRPRPLEAPRP | 0.41
RRIRLRPPRLPRPRPRPLECPRP | 0.184
RRIRLRPPRLPRPRPRPLEPPRP | 0.0493
RRIRLRPPRLPRPRPRPLFFPRP | 0.417
RRIRLRPPRLPRPRPRPLHQPRP | -0.297
RRIRLRPPRLPRPRPRPLHRPRP | -0.226
RRIRLRPPRLPRPRPRPLIMPRP | -0.435
RRIRLRPPRLPRPRPRPLIQPRP | -0.247
RRIRLRPPRLPRPRPRPLKGPRP | -0.0279
RRIRLRPPRLPRPRPRPLLSPRP | -0.327
RRIRLRPPRLPRPRPRPLPDPRP | 0.327
RRIRLRPPRLPRPRPRPLPNPRP | 0.11
RRIRLRPPRLPRPRPRPLQSPRP | 0.0468
RRIRLRPPRLPRPRPRPLRHPRP | 0.171
RRIRLRPPRLPRPRPRPLRTPRP | 1.18
RRIRLRPPRLPRPRPRPLSSPRP | -0.0447
RRIRLRPPRLPRPRPRPLTMPRP | -0.427
RRIRLRPPRLPRPRPRPLTWPRP | 0.0168

Sequence | shrunken log2 fold change
RRIRLRPPRLPRPRPRPLVGPRP | 0.246
RRIRLRPPRLPRPRPRPLWTPRP | -0.0559
RRIRLRPPRLPRPRPRPLWYPRP | -0.191
RRIRLRPPRLPRPRPRPLYVPRP | -0.897
RRIRLRPPRLPRPRPRPMAPPRP | 0.19
RRIRLRPPRLPRPRPRPMATPRP | -0.187
RRIRLRPPRLPRPRPRPMDAPRP | 0.282
RRIRLRPPRLPRPRPRPMDLPRP | -0.171
RRIRLRPPRLPRPRPRPMDRPRP | -0.0152
RRIRLRPPRLPRPRPRPMELPRP | -0.00973
RRIRLRPPRLPRPRPRPMFSPRP | -0.267
RRIRLRPPRLPRPRPRPMFTPRP | -0.0806
RRIRLRPPRLPRPRPRPMGEPRP | 0.136
RRIRLRPPRLPRPRPRPMIAPRP | -0.141
RRIRLRPPRLPRPRPRPMIIPRP | -0.407
RRIRLRPPRLPRPRPRPMLCPRP | -0.0499
RRIRLRPPRLPRPRPRPMPLPRP | -0.043
RRIRLRPPRLPRPRPRPMRMPRP | -0.076
RRIRLRPPRLPRPRPRPMRNPRP | 0.372
RRIRLRPPRLPRPRPRPMSFPRP | -0.284
RRIRLRPPRLPRPRPRPMTAPRP | 0.0114
RRIRLRPPRLPRPRPRPMTQPRP | 0.162
RRIRLRPPRLPRPRPRPMTRPRP | 0.314
RRIRLRPPRLPRPRPRPMVMPRP | -0.0937
RRIRLRPPRLPRPRPRPMWEPRP | 0.00629

Sequence | shrunken log2 fold change
RRIRLRPPRLPRPRPRPMYAPRP | -0.248
RRIRLRPPRLPRPRPRPMYNPRP | -0.273
RRIRLRPPRLPRPRPRPNAIPRP | -0.385
RRIRLRPPRLPRPRPRPNAVPRP | 0.00719
RRIRLRPPRLPRPRPRPNCAPRP | 0.415
RRIRLRPPRLPRPRPRPNCGPRP | -0.0908
RRIRLRPPRLPRPRPRPNDEPRP | 0.0316
RRIRLRPPRLPRPRPRPNDHPRP | -0.43
RRIRLRPPRLPRPRPRPNEFPRP | -0.168
RRIRLRPPRLPRPRPRPNEQPRP | -0.0127
RRIRLRPPRLPRPRPRPNESPRP | -0.00771
RRIRLRPPRLPRPRPRPNFTPRP | -0.501
RRIRLRPPRLPRPRPRPNFVPRP | -0.196
RRIRLRPPRLPRPRPRPNGFPRP | -0.27
RRIRLRPPRLPRPRPRPNHFPRP | -0.349
RRIRLRPPRLPRPRPRPNKWPRP | -0.066
RRIRLRPPRLPRPRPRPNKYPRP | -0.742
RRIRLRPPRLPRPRPRPNLMPRP | -0.367
RRIRLRPPRLPRPRPRPNLYPRP | -0.38
RRIRLRPPRLPRPRPRPNMTPRP | -0.0555
RRIRLRPPRLPRPRPRPNNEPRP | -0.276
RRIRLRPPRLPRPRPRPNNPPRP | -0.157
RRIRLRPPRLPRPRPRPNNQPRP | -0.287
RRIRLRPPRLPRPRPRPNNWPRP | -0.275
RRIRLRPPRLPRPRPRPNPSPRP | 0.104

Sequence | shrunken log2 fold change
RRIRLRPPRLPRPRPRPNQGPRP | -0.148
RRIRLRPPRLPRPRPRPNQQPRP | 0.0291
RRIRLRPPRLPRPRPRPNQRPRP | 0.00956
RRIRLRPPRLPRPRPRPNRHPRP | -0.312
RRIRLRPPRLPRPRPRPNSNPRP | -0.335
RRIRLRPPRLPRPRPRPNTWPRP | -0.245
RRIRLRPPRLPRPRPRPNVEPRP | -0.211
RRIRLRPPRLPRPRPRPNVLPRP | -0.304
RRIRLRPPRLPRPRPRPNVVPRP | -0.19
RRIRLRPPRLPRPRPRPNYAPRP | -0.0328
RRIRLRPPRLPRPRPRPPAEPRP | 0.404
RRIRLRPPRLPRPRPRPPANPRP | 0.592
RRIRLRPPRLPRPRPRPPATPRP | 0.725
RRIRLRPPRLPRPRPRPPDGPRP | 0.0617
RRIRLRPPRLPRPRPRPPDRPRP | 0.467
RRIRLRPPRLPRPRPRPPFLPRP | 0.105
RRIRLRPPRLPRPRPRPPGGPRP | 0.664
RRIRLRPPRLPRPRPRPPGYPRP | -0.119
RRIRLRPPRLPRPRPRPPNIPRP | -0.346
RRIRLRPPRLPRPRPRPPPPPRP | 1.55
RRIRLRPPRLPRPRPRPPQTPRP | 0.0847
RRIRLRPPRLPRPRPRPPRLPRP | 0.46
RRIRLRPPRLPRPRPRPPRRPRP | 0.746
RRIRLRPPRLPRPRPRPPSPPRP | 0.58
RRIRLRPPRLPRPRPRPPTCPRP | 0.192

Sequence | shrunken log2 fold change
RRIRLRPPRLPRPRPRPPTWPRP | 0.169
RRIRLRPPRLPRPRPRPPWLPRP | 0.439
RRIRLRPPRLPRPRPRPQAEPRP | 0.0388
RRIRLRPPRLPRPRPRPQAGPRP | -0.0299
RRIRLRPPRLPRPRPRPQAKPRP | -0.0308
RRIRLRPPRLPRPRPRPQDWPRP | -0.104
RRIRLRPPRLPRPRPRPQFLPRP | -0.0896
RRIRLRPPRLPRPRPRPQHSPRP | -0.337
RRIRLRPPRLPRPRPRPQLLPRP | -0.0176
RRIRLRPPRLPRPRPRPQLNPRP | -0.214
RRIRLRPPRLPRPRPRPQLSPRP | -0.0956
RRIRLRPPRLPRPRPRPQMFPRP | -0.427
RRIRLRPPRLPRPRPRPQMKPRP | -0.0293
RRIRLRPPRLPRPRPRPQMNPRP | -0.507
RRIRLRPPRLPRPRPRPQNVPRP | -0.523
RRIRLRPPRLPRPRPRPQPGPRP | 0.0607
RRIRLRPPRLPRPRPRPQPVPRP | 0.0205
RRIRLRPPRLPRPRPRPQQNPRP | -0.241
RRIRLRPPRLPRPRPRPQRSPRP | 0.16
RRIRLRPPRLPRPRPRPQSGPRP | -0.0923
RRIRLRPPRLPRPRPRPQSHPRP | -0.349
RRIRLRPPRLPRPRPRPQSWPRP | -0.0792
RRIRLRPPRLPRPRPRPQTEPRP | -0.0579
RRIRLRPPRLPRPRPRPQTNPRP | -0.497
RRIRLRPPRLPRPRPRPQTTPRP | -0.152

Sequence | shrunken log2 fold change
RRIRLRPPRLPRPRPRPQVFPRP | 0.502
RRIRLRPPRLPRPRPRPQWQPRP | 0.0949
RRIRLRPPRLPRPRPRPQWRPRP | 0.087
RRIRLRPPRLPRPRPRPQYWPRP | -0.275
RRIRLRPPRLPRPRPRPRCVPRP | 0.0662
RRIRLRPPRLPRPRPRPRDIPRP | -0.54
RRIRLRPPRLPRPRPRPRDMPRP | 0.00118
RRIRLRPPRLPRPRPRPREEPRP | -0.0235
RRIRLRPPRLPRPRPRPRFYPRP | 0.074
RRIRLRPPRLPRPRPRPRGGPRP | 0.515
RRIRLRPPRLPRPRPRPRGVPRP | 0.494
RRIRLRPPRLPRPRPRPRHYPRP | -0.127
RRIRLRPPRLPRPRPRPRLPPRP | 0.149
RRIRLRPPRLPRPRPRPRNRPRP | 0.267
RRIRLRPPRLPRPRPRPRRMPRP | 0.053
RRIRLRPPRLPRPRPRPRRTPRP | 0.354
RRIRLRPPRLPRPRPRPRSDPRP | 0.126
RRIRLRPPRLPRPRPRPRSQPRP | 0.19
RRIRLRPPRLPRPRPRPRTNPRP | 0.113
RRIRLRPPRLPRPRPRPRVWPRP | 0.655
RRIRLRPPRLPRPRPRPRWAPRP | 0.145
RRIRLRPPRLPRPRPRPRWCPRP | -0.0806
RRIRLRPPRLPRPRPRPRWKPRP | 0.191
RRIRLRPPRLPRPRPRPSAHPRP | 0.0318
RRIRLRPPRLPRPRPRPSDFPRP | -0.131
